The values that follow come from publication PMC3420917, “A Combinatorial Amino Acid Code for RNA Recognition by Pentatricopeptide Repeat Proteins” (PLoS Genetics, 2012).

One data set deals with T1, rPPR10 wild-type (maize, UniProt B8Y6I0 96-786).
T1 sequence: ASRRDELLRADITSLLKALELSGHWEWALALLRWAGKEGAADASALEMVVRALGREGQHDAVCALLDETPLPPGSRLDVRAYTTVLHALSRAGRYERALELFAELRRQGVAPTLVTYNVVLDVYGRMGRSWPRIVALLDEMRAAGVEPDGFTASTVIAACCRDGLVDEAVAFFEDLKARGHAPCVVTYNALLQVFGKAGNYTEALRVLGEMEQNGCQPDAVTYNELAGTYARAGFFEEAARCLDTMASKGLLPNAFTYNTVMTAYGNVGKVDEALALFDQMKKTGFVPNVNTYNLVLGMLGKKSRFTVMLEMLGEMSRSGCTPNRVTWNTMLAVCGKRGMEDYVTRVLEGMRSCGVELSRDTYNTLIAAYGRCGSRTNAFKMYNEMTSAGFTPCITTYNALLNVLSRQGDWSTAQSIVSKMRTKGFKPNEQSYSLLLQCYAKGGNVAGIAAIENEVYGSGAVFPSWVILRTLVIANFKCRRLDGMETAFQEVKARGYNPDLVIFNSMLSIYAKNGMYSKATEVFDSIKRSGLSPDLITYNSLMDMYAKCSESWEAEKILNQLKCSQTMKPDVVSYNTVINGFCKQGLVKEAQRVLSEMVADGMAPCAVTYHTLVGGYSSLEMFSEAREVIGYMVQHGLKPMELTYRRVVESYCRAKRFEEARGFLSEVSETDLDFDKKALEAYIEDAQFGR
Put plainly: SV-AUC; 3 uM protein, 1.5 or 3 uM RNA; 1:1 monomer complex; EMSA: radiolabeled RNA 15 pM, protein 0, 5, 10, 20 nM; binding buffer and temperature by reference [12]; protein stock in 400 mM NaCl, 50 mM Tris-HCl pH 7.5, 5. As to conditions: protein: recombinant; tags: MBP fusion removed by TEV cleavage; single-stranded.

A further data set has as its target T2, PPR10 ND variant (maize, UniProt B8Y6I0 96-786, N349D).
T2 sequence: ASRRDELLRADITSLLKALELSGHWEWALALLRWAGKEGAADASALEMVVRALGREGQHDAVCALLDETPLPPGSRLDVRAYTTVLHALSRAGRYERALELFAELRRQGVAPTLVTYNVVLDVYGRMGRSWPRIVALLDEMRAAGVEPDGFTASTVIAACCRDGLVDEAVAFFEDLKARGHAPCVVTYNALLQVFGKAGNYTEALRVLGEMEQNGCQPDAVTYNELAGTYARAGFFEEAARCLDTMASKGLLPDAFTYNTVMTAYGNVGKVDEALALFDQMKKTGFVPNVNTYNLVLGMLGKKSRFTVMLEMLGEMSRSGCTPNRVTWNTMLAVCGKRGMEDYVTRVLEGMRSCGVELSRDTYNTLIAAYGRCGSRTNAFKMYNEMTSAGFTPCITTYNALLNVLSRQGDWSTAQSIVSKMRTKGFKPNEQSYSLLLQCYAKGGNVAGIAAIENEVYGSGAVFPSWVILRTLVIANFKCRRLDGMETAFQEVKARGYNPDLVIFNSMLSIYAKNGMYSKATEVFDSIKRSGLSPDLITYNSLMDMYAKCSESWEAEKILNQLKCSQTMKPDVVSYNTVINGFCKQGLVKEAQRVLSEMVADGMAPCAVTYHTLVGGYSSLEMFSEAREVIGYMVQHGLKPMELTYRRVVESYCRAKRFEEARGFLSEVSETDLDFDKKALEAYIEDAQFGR
Put plainly: EMSA; EMSA: radiolabeled RNA 15 pM, protein 0, 5, 10, 20 nM; binding buffer and temperature by reference [12]; protein stock in 400 mM NaCl, 50 mM Tris-HCl pH 7.5, 5. The note with it: protein: recombinant; tags: MBP fusion removed by TEV cleavage; label: radiolabeled; single-stranded. On the technique in general: Mobility shift assays separate free from complexed probe on a gel.

A further data set deals with T3, PPR10 NS variant (maize, UniProt B8Y6I0 96-786, D314S;N349S).
T3 sequence: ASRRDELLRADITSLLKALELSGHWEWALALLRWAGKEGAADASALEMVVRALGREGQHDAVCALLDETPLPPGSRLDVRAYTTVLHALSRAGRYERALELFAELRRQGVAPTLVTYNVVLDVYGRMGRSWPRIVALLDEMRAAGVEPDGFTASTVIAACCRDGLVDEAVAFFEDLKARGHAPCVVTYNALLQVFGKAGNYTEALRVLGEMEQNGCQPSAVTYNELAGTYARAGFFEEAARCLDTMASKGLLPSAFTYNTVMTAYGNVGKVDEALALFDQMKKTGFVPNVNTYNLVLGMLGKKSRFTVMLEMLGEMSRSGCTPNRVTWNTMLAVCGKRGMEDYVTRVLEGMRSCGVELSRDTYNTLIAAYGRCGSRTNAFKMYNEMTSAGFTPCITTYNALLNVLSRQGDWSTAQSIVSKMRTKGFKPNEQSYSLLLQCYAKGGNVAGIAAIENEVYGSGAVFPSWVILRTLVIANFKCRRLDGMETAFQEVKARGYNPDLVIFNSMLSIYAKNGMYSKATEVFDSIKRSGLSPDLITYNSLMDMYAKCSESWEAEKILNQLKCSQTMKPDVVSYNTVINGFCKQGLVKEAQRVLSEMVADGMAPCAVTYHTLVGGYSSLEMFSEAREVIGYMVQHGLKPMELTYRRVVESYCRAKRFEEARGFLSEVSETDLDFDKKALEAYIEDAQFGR
The data set is described as above. The note with it: protein: recombinant; tags: MBP fusion removed by TEV cleavage; label: radiolabeled; single-stranded.

For data set [1], the target named is T4, PPR10 NN variant (maize, UniProt B8Y6I0 96-786, D314N).
T4 sequence: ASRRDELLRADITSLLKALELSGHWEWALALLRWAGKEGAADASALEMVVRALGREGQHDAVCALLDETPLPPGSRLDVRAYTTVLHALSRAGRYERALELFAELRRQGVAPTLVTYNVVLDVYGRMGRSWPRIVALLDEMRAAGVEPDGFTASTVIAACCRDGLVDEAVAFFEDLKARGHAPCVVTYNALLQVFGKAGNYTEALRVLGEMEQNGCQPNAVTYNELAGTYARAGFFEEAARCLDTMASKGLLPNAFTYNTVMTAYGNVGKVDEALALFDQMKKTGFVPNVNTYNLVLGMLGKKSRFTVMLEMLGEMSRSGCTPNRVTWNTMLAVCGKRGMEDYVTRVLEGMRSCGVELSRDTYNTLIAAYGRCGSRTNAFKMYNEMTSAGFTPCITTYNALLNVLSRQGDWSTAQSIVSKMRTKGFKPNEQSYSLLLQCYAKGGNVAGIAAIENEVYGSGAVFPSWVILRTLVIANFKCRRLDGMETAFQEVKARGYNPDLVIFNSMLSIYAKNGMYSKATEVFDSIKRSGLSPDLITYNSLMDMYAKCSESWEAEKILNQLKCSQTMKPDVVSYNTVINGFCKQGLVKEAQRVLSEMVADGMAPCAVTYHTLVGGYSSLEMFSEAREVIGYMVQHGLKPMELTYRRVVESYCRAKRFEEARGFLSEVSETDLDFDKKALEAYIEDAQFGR
Briefly: EMSA; affinity similar to CC RNA; EMSA: radiolabeled RNA 15 pM, protein 0, 5, 10, 20 nM; binding buffer and temperature by reference [12]; protein stock in 400 mM NaCl, 50 mM Tris-HCl pH 7.5, 5. As to conditions: protein: recombinant; tags: MBP fusion removed by TEV cleavage; label: radiolabeled; single-stranded.

Data set [2] addresses T4, PPR10 NN variant. Briefly: EMSA; affinity similar to UU RNA; EMSA: radiolabeled RNA 15 pM, protein 0, 5, 10, 20 nM; binding buffer and temperature by reference [12]; protein stock in 400 mM NaCl, 50 mM Tris-HCl pH 7.5, 5. The note with it: protein: recombinant; tags: MBP fusion removed by TEV cleavage; label: radiolabeled; single-stranded.

B1: PPR10 17-nt minimal RNA ligand (ssRNA)
RNA: GUAUCCUUAACCAUUUC
For B1, in the data set with rPPR10 wild-type, the binding result is “binds”.

B2: UU RNA (ssRNA)
RNA: GUAUUCUUAACCAUUUC
A word on the Kd: it is the equilibrium constant for the complex coming apart. As to B2, the Kd was roughly 3 nM with PPR10 ND variant and 20 nM with PPR10 NS variant. Besides, the binding result in the data set with PPR10 NN variant [1] is recorded as “binds”.

B3: CC RNA (ssRNA)
RNA: GUACCCUUAACCAUUUC
Regarding B3, the dissociation constant Kd came to 17 nM with PPR10 ND variant and 9 nM with PPR10 NS variant. The binding result with PPR10 NN variant [2] is recorded as “binds”.
